Consider 9 molecules from patent US20080267971A1 (published 2008).

The chains are these.
T1: mouse Angiopoietin-2 (mouse, UniProt O35608 19-496)
T1 construct: Used as conditioned medium of transfectants; also called mAng-2; mouse Ang-2
T1 sequence: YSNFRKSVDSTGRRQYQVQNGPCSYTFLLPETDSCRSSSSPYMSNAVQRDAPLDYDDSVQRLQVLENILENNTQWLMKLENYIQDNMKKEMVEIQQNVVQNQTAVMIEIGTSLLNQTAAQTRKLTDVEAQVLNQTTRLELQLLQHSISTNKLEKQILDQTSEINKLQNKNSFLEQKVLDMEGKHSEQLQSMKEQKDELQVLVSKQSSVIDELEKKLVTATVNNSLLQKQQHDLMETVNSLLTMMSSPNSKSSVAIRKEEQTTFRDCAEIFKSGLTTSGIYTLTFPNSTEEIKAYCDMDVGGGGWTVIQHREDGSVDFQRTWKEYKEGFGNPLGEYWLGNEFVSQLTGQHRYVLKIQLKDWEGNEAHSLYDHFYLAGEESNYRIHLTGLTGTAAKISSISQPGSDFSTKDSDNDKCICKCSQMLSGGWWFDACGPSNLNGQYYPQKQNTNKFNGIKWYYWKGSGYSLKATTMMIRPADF

T2: human Angiopoietin-2 (human, UniProt O15123 19-496)
T2 construct: Mostly bought recombinant protein (R&D Systems 623-AM/CF, 623-AN; biotinylated BT623) or supernatant of transfected 293F cells; also called Ang-2; rhAng-2
T2 sequence: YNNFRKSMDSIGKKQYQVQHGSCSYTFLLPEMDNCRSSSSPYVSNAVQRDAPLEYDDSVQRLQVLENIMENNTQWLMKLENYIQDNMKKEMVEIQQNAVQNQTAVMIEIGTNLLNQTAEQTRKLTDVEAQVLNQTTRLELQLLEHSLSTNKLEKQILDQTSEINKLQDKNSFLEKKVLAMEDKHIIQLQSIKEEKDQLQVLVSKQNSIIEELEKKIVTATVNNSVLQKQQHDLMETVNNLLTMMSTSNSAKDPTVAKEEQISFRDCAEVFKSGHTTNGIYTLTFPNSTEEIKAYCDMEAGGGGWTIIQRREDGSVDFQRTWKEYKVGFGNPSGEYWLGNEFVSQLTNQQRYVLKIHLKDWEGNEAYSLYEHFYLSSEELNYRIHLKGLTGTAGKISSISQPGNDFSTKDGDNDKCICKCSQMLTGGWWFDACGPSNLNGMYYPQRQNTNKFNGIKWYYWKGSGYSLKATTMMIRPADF

T3: human Ang-2 H375Q (human, UniProt O15123 19-496)
T3 sequence: T2 sequence with H356Q

T4: human Angiopoietin-1 (human, UniProt Q15389 20-498, limits assumed)
T4 construct: Bought recombinant protein (R&D Systems 293-AN-025/CF) or supernatant of transfected 293F cells; also called Ang-1; recombinant Ang-1
T4 sequence: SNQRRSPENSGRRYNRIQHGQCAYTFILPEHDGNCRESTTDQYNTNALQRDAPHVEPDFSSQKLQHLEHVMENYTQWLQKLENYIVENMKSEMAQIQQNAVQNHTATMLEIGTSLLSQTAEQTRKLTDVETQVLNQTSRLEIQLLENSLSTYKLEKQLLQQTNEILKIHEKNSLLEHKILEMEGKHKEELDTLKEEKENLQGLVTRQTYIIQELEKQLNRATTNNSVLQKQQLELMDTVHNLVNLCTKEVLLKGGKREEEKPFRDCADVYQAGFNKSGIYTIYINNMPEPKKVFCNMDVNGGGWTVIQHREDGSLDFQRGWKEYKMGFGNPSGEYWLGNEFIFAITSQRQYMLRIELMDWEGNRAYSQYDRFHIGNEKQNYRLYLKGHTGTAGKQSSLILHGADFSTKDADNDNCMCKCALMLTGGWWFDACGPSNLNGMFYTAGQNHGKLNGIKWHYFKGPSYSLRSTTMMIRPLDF

B1: mAb 5.86.1 (antibody, V domains shown)
VH: QVQLVQSGAEVKKPGASVKVSCKASGYTFTGYHMYWVRQAPGQGLEWLGWINPNSGGTNYAQKFQGRVTMTRDTSISTAYMELSRLRSDDTAVYYCVRDQGIAAAGPFDYWCQGTLVTVSS
VL: DIRMTQSPSSLSASVGDRVTITCRASQRISTYLNWYQQKPGKAPKFLIYAASSLQSGVPSRFSGSGSGTDFTLTISSLQPEDFATYYCQQSYTTPFTFGPGTKVDIKR
notes: Human hybridoma IgG (XenoMouse); also called x5.86
B2: mAb 5.83.1 (antibody, V domains shown)
VH: not shown
VL: EIVMTQSPATLSVSPGERATLSCRASQSLISNLAWYQQKPGQAPRLLIFGASTRATGIPARFSGSGSGTEFTLTISSLQSEDFAVYYCHQYNNWWTFGQGTKVEIKR
notes: Human hybridoma IgG (XenoMouse); also called x5.83
B3: mAb 5.101.1 (antibody, V domains shown)
VH: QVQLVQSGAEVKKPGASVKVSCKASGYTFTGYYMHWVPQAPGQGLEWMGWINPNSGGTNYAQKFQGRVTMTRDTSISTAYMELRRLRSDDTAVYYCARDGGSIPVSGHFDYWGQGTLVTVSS
VL: B2 VL
notes: Human hybridoma IgG (XenoMouse); also called x5.101
B4: mAb 3.3.2 (antibody, V domains shown)
VH: EVQLVESGGGLVQPGGSLRLSCAVSGFTFSSYWMSWVRQAPGKGLEWVANIKQDGSEKYYVDSVKGRFTISRDNAKNSLYLQMNSLRAEDTAVYYCARDQGIAVAGPFDYWGQGTLVTVSS
VL: B2 VL with S28T, L29V, I30S, N32D, F49Y, T53I, Y87S, H89Q, N92Y
notes: Human hybridoma IgG (XenoMouse); also called 3.3.1; x3.3
B5: mAb 5.28.1 (antibody, V domains shown)
VH: EVQLVESGGIVVQPGGSLRLSCAASGFTFDDYTMHWVRQTPGKGLEWVSLISWDGGSTYYADSVKGRFTISRDNSKNSLYLQMNSLRTEDTALYYCAKDIDIAVAGTGFDHWGQGTLVTVSS
VL: EIVMTQSPATLSVSPGERATLSCRASQSVTSNLAWYQQKPGQAPRLLIYGALIRATGIPARFSGSGSGTEFTLTISSLQSEDFAVYYCQQYNNWPFTFGPGTKVDIKR
notes: Human hybridoma IgG (XenoMouse); also called x5.28
B6: mAb 5.56.1 (antibody, V domains shown)
VH: QVQLVESGGGVVQPGRSLRLSCAASGFTFSSYGMHWVRQAPGKGLEWVAVIWYDGSNKYYADSVKGRFTISRDNSKNTLYLQMNSLRAEDTAVYYCAREDNWNFYFDYWGQGTLVTVSS
VL: DIQMTQSPSSLSASVGDRVTITCRASQGISYYLAWYQQKPGKVPKLLIYAASTLQSGVPSRFSGSGSGTDFTLTISSLQPEDVATYYCQKYNSAPFTFGPGTKVDIKR
notes: Human hybridoma IgG (XenoMouse); also called x5.56
B7: mAb 3.19.3 (antibody, V domains shown)
VH: QVQLVESGGGVVQPGRSLRLSCAASGFTFTNYGMHWGRQAPGKGLEWVAVISHDGNNKYYVDSVKGRFTISRDNSKNTLYLQMNSLRAEDTAVYYCAREGIDFWSGLNWFDPWGQGTLVTVSS
VL: EIVLTQSPGTLSLSPGERATLSCRASQSITGSYLAWYQQKPGQAPRLLICGASSWATGIPDRFSGSGSGTDFTLTISRLEPEDFAVYYCQQYSSSPITFGQGTRLEIKR
notes: Human hybridoma IgG (XenoMouse); also called x3.19
B8: mAb 3.31.2 (antibody, V domains shown)
VH: EVQLVESGGGLVQPGGSLRLSCAASGFTFSSYWMSWVRQAPGKGLEWVANIKQDGSDKYYVDSVKGRFTISRDNAKNSLYLRMNSLRAEDTAVFYCARDMGSGWFDYWGQGTLVTVSS
VL: B2 VL with I2V, L29V, I30G, F49Y, Y87C, H89Q, N93H
notes: Human hybridoma IgG (XenoMouse); also called x3.31
B9: mAb 5.52.1 (antibody, V domains shown)
VH: QVQLVESGGGVVQPGRSLRLSCAASGFTFSSYGMHWVRQAPGKGLEWVAVRWYDESNKYYADSVKGRFTISRDNSKNTLYLQMNSLRAEDTAVYYCARDPFETGTTFDYWGQGTLVTVSS
VL: DIQMTQSPSSVSASVGDRVTITCRASQGISSWLAWYQQKPGKAPKLLIYAVSSLESGVPSRFSGSGSGTDFTLTISSLQPEDFATYYCQQALTFGGGTKVEIKR
notes: Human hybridoma IgG (XenoMouse); the line 5.52 has entries of its own (347, 349; light chain L2) that differ from the clone 5.52.1 (L5); also called x5.52

Substitutions are numbered along the chain they refer to.

In general, koff refers to the rate constant with which the complex falls apart. By Kd is commonly meant the free concentration of one partner at which half of the binding sites on the other are occupied at equilibrium, for simple one-to-one binding. One may read the kon as a measure of how fast the partners come together.

For one experiment, the target named is T1, mouse Angiopoietin-2. Briefly: ELISA, recombinant mouse Ang-2. (In general: ELISA stands for enzyme-linked immunosorbent assay.)
As to B1, the binding result is on record as “no binding”.

For B2, the binding result is “no binding”.

For B3, the binding result is reported as “no binding”.

With B4, the binding result is on record as “no binding”.

The target in a further experiment is T2, human Angiopoietin-2. Briefly: Biacore; kd held constant (*). As to the method:
(§1) The label-free surface plasmon resonance (SPR), or Biacore, was utilized to measure the antibody affinity to the antigen. For this purpose, a high-density goat anti-human antibody surface over a CM5 Biacore chip was prepared using routine amine coupling. All the purified mAbs were diluted to approximately 8 μg/ml in HBS-P running buffer containing 100 μg/ml BSA and 10 mg/mL carboxymethyldextran. Each mAb was captured on a separate surface using a 42-second contact time, and a 5-minute wash for stabilization of the mAb baseline.
(§2) Data were fit globally to a 1:1 interaction model to determine the binding kinetics.
(In SPR one partner is held on a chip, and binding of the other changes the refractive index at the surface.)
Turning to B5, the koff was ≤ 1e-05 s⁻¹.

With B6, the koff is ≤ 1e-05 s⁻¹.

Regarding B7, the koff was ≤ 1e-05 s⁻¹.

Turning to B2, the dissociation rate constant (koff) was ≤ 1e-05 s⁻¹.

Turning to B8, the koff is ≤ 1e-05 s⁻¹.

For B4, the koff is ≤ 1e-05 s⁻¹.

A further experiment deals with T2, human Angiopoietin-2. In words: Biacore, mAb captured. As to the method: as §1, §2
Consider B5, for which the Kd is ≤ 40 pM and the kon came out at 250000 M⁻¹ s⁻¹.

For B6, the Kd is ≤ 52 pM and the kon is 190000 M⁻¹ s⁻¹.

In turn, B1 yielded a Kd of 744 pM, a koff of 0.00011 s⁻¹ and a kon of 150000 M⁻¹ s⁻¹.

Turning to B9, the Kd was ≤ 750 pM and the kon turned out to be 13000 M⁻¹ s⁻¹.

Turning to B7, the Kd is ≤ 111 pM and the kon was found to be 90000 M⁻¹ s⁻¹.

Regarding B2, the Kd was ≤ 147 pM and the on-rate constant (kon) was found to be 68000 M⁻¹ s⁻¹.

With B8, the Kd is ≤ 51 pM and the kon came to 190000 M⁻¹ s⁻¹.

The molecule B3 gave a Kd of 581 pM, a dissociation rate constant (koff) of 8.7e-05 s⁻¹ and a kon of 150000 M⁻¹ s⁻¹.

Take B4: the Kd is ≤ 33 pM and the kon amounted to 300000 M⁻¹ s⁻¹.

In the next experiment the target is T2, human Angiopoietin-2. In words: inhibition of rhAng-2 binding to its receptor.
In the case of B5, the “OD650 in inhibition assay” value stood at 0.0821 OD650.

B6: the “OD650 in inhibition assay” value came to 0.0863 OD650.

In the case of B1, the “OD650 in inhibition assay” value is 0.0419 OD650.

Take B9: the “OD650 in inhibition assay” value is 0.0627 OD650.

Take B7: the “OD650 in inhibition assay” value came out at 0.0633 OD650.

For B2, the “OD650 in inhibition assay” value amounted to 0.0484 OD650.

With B8, the “OD650 in inhibition assay” value came to 0.0516 OD650.

For the molecule B3, the “OD650 in inhibition assay” value stood at 0.0824 OD650.

For the molecule B4, the “OD650 in inhibition assay” value is 0.0558 OD650.

For the next experiment, the target named is T3, human Ang-2 H375Q. In words: ELISA.
Regarding B5, the “% of binding to human Ang-2” value was 100%.

Take B6: the “% of binding to human Ang-2” value turned out to be 100%.

For the molecule B1, the “% of binding to human Ang-2” value was determined as 100%.

B9: the “% of binding to human Ang-2” value came to 100%.

As for B7, the “% of binding to human Ang-2” value turned out to be 100%.

As to B2, the “% of binding to human Ang-2” value is 100%.

For B8, the “% of binding to human Ang-2” value worked out at 100%.

For the molecule B3, the “% of binding to human Ang-2” value was 100%.

Take B4: the “% of binding to human Ang-2” value was 100%.

The target of another experiment is T4, human Angiopoietin-1. In words: capture ELISA. As for the experimental part:
The binding of the top 27 human monoclonal antibodies was detected with a HRP-conjugated goat anti-human antibody, followed by colorimetric horseradish peroxidase substrate (Enhanced K-Blue TMB substrate Neogen Corporation). The absorbance of each well of the ELISA plates was measured at 450 nm on a microplate autoreader.
For the molecule B5, the binding result is reported as “no binding”.

For B6, the binding result is on record as “no binding”.

Take B1: the binding result was “no binding”.

Turning to B2, the binding result was “no binding”.

Turning to B8, the binding result is recorded as “no binding”.

In the case of B3, the binding result is on record as “no binding”.
